Drawing on article PMC10015821 (Matrix biology : journal of the International Society for …, 2022), this text covers Kd, koff and kon for six molecules.

Bounds are passed on as bounds.

Holding throughout (assay): SPR
The target of assay [1] is mouse HMCN1 fragment G2F-EGF1–3 (mouse) (UniProt D3YXG0).
Assay [2] has as its target mouse HMCN1 fragment G2F-EGF1–4 (mouse) (UniProt D3YXG0).
Assay [3] addresses mouse HMCN1 fragment G2F (mouse) (UniProt D3YXG0).
The target in assay [4] is mouse HMCN1 fragment G2F-EGF1–5 (Strep-tagged) (mouse) (UniProt D3YXG0).
The target in assay [5] is mouse HMCN1 fragment TSR6-G2F-EGF1–2 (mouse) (UniProt D3YXG0).
The target of assay [6] is mouse HMCN1 fragment G2F-EGF1–2 (mouse) (UniProt D3YXG0).
Assay [7] deals with mouse HMCN1 fragment G2F-EGF1–5 (Strep-tagged) (mouse, UniProt D3YXG0 22-5634).
For a further assay, the target named is laminin-511 (UniProt O15230 36-3695; P07942 22-1786; P11047 34-1609).
The target in assay [8] is laminin-γ1 short arm (mouse) (UniProt P02468).
Sequence of laminin-γ1 short arm (mouse) (P02468 34-1607): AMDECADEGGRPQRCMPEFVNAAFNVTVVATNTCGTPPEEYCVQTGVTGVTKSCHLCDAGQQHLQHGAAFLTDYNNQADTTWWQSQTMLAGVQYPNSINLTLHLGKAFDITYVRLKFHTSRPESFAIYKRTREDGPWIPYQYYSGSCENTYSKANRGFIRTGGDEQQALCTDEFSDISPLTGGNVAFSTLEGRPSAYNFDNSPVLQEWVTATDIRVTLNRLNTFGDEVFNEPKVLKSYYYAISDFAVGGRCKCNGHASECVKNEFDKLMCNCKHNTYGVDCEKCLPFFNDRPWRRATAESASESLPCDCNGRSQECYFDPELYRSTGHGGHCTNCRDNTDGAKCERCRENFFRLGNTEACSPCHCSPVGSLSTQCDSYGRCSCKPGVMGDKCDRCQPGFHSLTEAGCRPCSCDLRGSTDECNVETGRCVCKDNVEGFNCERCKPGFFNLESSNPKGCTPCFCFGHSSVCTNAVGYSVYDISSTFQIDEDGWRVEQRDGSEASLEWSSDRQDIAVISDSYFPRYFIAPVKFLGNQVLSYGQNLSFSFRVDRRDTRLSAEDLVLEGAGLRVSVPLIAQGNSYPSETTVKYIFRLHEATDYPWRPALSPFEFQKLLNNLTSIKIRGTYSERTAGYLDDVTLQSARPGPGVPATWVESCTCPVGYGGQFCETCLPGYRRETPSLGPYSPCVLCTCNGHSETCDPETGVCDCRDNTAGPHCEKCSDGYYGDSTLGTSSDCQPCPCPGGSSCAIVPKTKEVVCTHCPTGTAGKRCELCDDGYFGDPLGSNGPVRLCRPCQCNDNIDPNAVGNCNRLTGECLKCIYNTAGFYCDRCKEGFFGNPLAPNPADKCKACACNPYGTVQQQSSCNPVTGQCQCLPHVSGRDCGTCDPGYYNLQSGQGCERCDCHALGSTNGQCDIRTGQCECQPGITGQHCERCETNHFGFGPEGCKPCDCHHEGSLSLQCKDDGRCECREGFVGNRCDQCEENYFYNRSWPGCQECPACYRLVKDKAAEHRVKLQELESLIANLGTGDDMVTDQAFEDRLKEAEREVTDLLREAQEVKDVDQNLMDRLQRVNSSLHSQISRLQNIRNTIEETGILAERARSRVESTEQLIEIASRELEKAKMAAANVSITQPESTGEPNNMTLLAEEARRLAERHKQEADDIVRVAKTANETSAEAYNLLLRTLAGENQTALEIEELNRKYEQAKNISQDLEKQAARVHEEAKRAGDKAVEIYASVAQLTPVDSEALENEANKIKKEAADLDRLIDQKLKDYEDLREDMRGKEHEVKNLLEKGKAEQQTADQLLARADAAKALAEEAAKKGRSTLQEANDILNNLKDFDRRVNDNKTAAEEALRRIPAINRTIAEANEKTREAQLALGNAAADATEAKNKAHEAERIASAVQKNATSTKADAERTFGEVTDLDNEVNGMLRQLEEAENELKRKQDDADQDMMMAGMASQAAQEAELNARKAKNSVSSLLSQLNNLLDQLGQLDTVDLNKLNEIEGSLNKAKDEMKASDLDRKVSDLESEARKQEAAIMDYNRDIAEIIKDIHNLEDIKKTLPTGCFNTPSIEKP
The target of assay [9] is mouse HMCN1 fragment EGF1–5 (mouse) (UniProt D3YXG0).

As for “mouse NID2 TY-G3 (TG3) domain, Strep-tagged (from UniProt O88322 31-1403) (domain or fragment)”, the Kd in assay [1] was 170 nM; in assay [2], 180 nM; in assay [3], more than 3000 nM; in [4] it was 30 nM; in [5], 176 nM; in [6], 185 nM.

Molecule “mouse NID1 TY-G3 (TG3) domain (from UniProt P10493 29-1245) (domain or fragment)” returned a dissociation constant (Kd) in assay [4] of 585 nM.

B1: hybrid fragment: single TY domain of NID1 with the G3 domain of Nid2 (N1T-N2G3) (domain or fragment)
chain: KTRCQLEREHILGAAGGADAQRPTLQGMFVPQCDEYGHYVPTQCHHSTGYCWCVDRDGRELEGSRTPPGMRPPCIPTVAPPVVRPTPRPDVTPPSVGTFLLYAQGQQIGHLPLNGSRLQKDAARTLLSLHGSIVVGIDYDCRERMVYWTDVAGRTISRASLEAGAEPETIITSGLISPEGLAIDHFRRTMYWTDSGLDKIERAELDGSERKVLFHTDLVNPRAITVDPIRGNLYWTDWNREAPKIETSSLDGENRRILINKDIGLPNGLTFDPFSKLLCWADAGTKKLECTLPDGTGRRVIQNHLNYPFSIVSYADHFYHTDWRRDGVISVNKDSGQFTDEFLPEQRSHLYGITAVYPYCPTGRK
B1 registered an equilibrium dissociation constant (Kd) in assay [7] of 110 nM.

B2: hybrid fragment: two TY domains of NID2 with the G3 domain of NID1 (N2T-N1G3) (domain or fragment)
chain: LKPCEYQQRYAQTQHAYPGSRIHIPQCDDQGNFVPLQCHGSTGFCWCVDRNGHEVPGTQTPPGSTPPHCGPPPEPTQRPRTVCERWRESLLEHYGGTPRDDQYVPQCDDLGHFIPLQCHGKSDFCWCVDKDGRELQGTRSQPGTRPACLSTVAPPIHQGPVVPTAVIPLPPGTHLLFAQTGKIERLPLERNTMKKTEAKAFLHIPAKVIIGLAFDCVDKVVYWTDISEPSIGRASLHGGEPTTIIRQDLGSPEGIALDHLGRTIFWTDSQLDRIEVAKMDGTQRRVLFDTGLVNPRGIVTDPVRGNLYWTDWNRDNPKIETSHMDGTNRRILAQDNLGLPNGLTFDAFSSQLCWVDAGTHRAECLNPAQPGRRKVLEGLQYPFAVTSYGKNLYYTDWKTNSVIAMDLAISKEMDTFHPHKQTRLYGITIALSQCPQGHNYCSVNNGGCTHLCLPTPGSRTCRCPDNTLGVDCIERK
For the molecule B2, the Kd in [7] was 170 nM.

B3: mouse nidogen-1 (NID1), full-length (natural protein, UniProt P10493 29-1245, looked up)
chain: LNRQELFPFGPGQGDLELEAGDDVVSPSLELIGELSFYDRTDITSVYVTTNGIIAMSEPPATEYHPGTFPPSFGSVAPFLADLDTTDGLGNVYYREDLSPFIIQMAAEYVQRGFPEVSFQPTSVVVVTWESVAPYGGPSSSPAEEGKRNTFQAVLASSNSSSYAIFLYPEDGLQFFTTFSKKDESQVPAVVGFSKGLVGFLWKSNGAYNIFANDRESIENLAKSSNAGHQGVWVFEIGSPATAKGVVSADVNLDLDDDGADYEDEDYDLVTSHLGLEDVATPSPSHSPRRGYPDPHNVPRILSPGYEATERPRGVPTERTRSFQLPAERFPQHHPQVIDVDEVEETGVVFSYNTGSQQTCANNRHQCSVHAECRDYATGFCCRCVANYTGNGRQCVAEGSPQRVNGKVKGRIFVGSSQVPVVFENTDLHSYVVMNHGRSYTAISTIPETVGYSLLPLAPIGGIIGWMFAVEQDGFKNGFSITGGEFTRQAEVTFLGHPGKLVLKQQFSGIDEHGHLTISTELEGRVPQIPYGASVHIEPYTELYHYSSSVITSSSTREYTVMEPDQDGAAPSHTHIYQWRQTITFQECAHDDARPALPSTQQLSVDSVFVLYNKEERILRYALSNSIGPVRDGSPDALQNPCYIGTHGCDSNAACRPGPGTQFTCECSIGFRGDGQTCYDIDECSEQPSRCGNHAVCNNLPGTFRCECVEGYHFSDRGTCVAAEDQRPINYCETGLHNCDIPQRAQCIYMGGSSYTCSCLPGFSGDGRACRDVDECQHSRCHPDAFCYNTPGSFTCQCKPGYQGDGFRCMPGEVSKTRCQLEREHILGAAGGADAQRPTLQGMFVPQCDEYGHYVPTQCHHSTGYCWCVDRDGRELEGSRTPPGMRPPCLSTVAPPIHQGPVVPTAVIPLPPGTHLLFAQTGKIERLPLERNTMKKTEAKAFLHIPAKVIIGLAFDCVDKVVYWTDISEPSIGRASLHGGEPTTIIRQDLGSPEGIALDHLGRTIFWTDSQLDRIEVAKMDGTQRRVLFDTGLVNPRGIVTDPVRGNLYWTDWNRDNPKIETSHMDGTNRRILAQDNLGLPNGLTFDAFSSQLCWVDAGTHRAECLNPAQPGRRKVLEGLQYPFAVTSYGKNLYYTDWKTNSVIAMDLAISKEMDTFHPHKQTRLYGITIALSQCPQGHNYCSVNNGGCTHLCLPTPGSRTCRCPDNTLGVDCIERK
As for B3, in the assay with laminin-511, binding was put at a Kd of 2.4 nM and the koff turned out to be 0.0021 s⁻¹. Besides, in assay [4], the dissociation constant (Kd) was 560 nM.

B4: mouse nidogen-2 (NID2), full-length, Strep-tagged (natural protein, UniProt O88322 31-1403, looked up)
chain: LRPDELFPYGESWGDQLLPEGDDESSAAVKLAIPLRFYDAQFSSLYVGTNGIISTQDFPRETQYVDDDFPTDFPAIAPFLADIDTSHSRGRILYREDTSGAVLSLAARYVRTGFPLSGSSFTPTHAFLATWEHVGAYEEVSRGAAPSGELNTFQAVLASDESDTYALFLYPANGLQFFGTRPKESYNVQLQLPARVGFCRGEADDLKREALYFSLTNTEQSVKNLYQLSNLGIPGVWAFHIGSRFALDNVRPATVGGDPSTARSSALEHPFSHAAALESYTEDSFHYYDENEEDVEYPPVEPGEAPEGHSRIDVSFNSKADPGLVDVGTSSPGSDRASPWPYPAPGNWPSYRETESASLDPQTKQGRPVGEGEVLDFRDPAELLDQMGTRAPAPPEADAALLTPVNEDLGGRNTQSYPEAGPVPSEPDVPVPPLEGEVLPHYPESGHVPPLRGGKYVIGLEDHVGSNDQVFTYNGANLETCEHSHGRCSQHAFCTDYTTGFCCHCQSRFYGNGKHCLPEGAPHRVNGKVSGRLRVGHIPVHFTDVDLHAYIVGNDGRAYTAISHVPQPAAQALLPVLPIGGLFGWLFALEKPGSENGFSLTGATFVHDVEVTFHPGEERVRITQTAEGLDPENYLSIKTNIEGQVPFIPANFTAHITPYKEFYHYRDSVVTSSSSRSFSLTSGSINQTWSYHIDQNITYQACRHAPRHLAIPATQQLTVDRAFALYSEDEGVLRFAVTNQIGPVEVDSAPVGVNPCYDGSHTCDTTARCHPGTGVDYTCECTPGFQGDGRSCVDVNECATGFHRCGPNSVCVNLVGSYRCECRSGYEFADDQHTCILIAPPPNPCLDGSHTCAPEGQARCIHHGGSSFSCACLPGFIGTGHQCSDVDECAENRCHEAAICYNTPGSFSCRCQPGYRGDGFHCTSDTVPEDSISGLKPCEYQQRYAQTQHAYPGSRIHIPQCDDQGNFVPLQCHGSTGFCWCVDRNGHEVPGTQTPPGSTPPHCGPPPEPTQRPRTVCERWRESLLEHYGGTPRDDQYVPQCDDLGHFIPLQCHGKSDFCWCVDKDGRELQGTRSQPGTRPACIPTVAPPVVRPTPRPDVTPPSVGTFLLYAQGQQIGHLPLNGSRLQKDAARTLLSLHGSIVVGIDYDCRERMVYWTDVAGRTISRASLEAGAEPETIITSGLISPEGLAIDHFRRTMYWTDSGLDKIERAELDGSERKVLFHTDLVNPRAITVDPIRGNLYWTDWNREAPKIETSSLDGENRRILINKDIGLPNGLTFDPFSKLLCWADAGTKKLECTLPDGTGRRVIQNHLNYPFSIVSYADHFYHTDWRRDGVISVNKDSGQFTDEFLPEQRSHLYGITAVYPYCPTGRK
For B4, the Kd was 5 nM in the assay with laminin-511; 210 nM in assay [1]; 193 nM in [2]; more than 3000 nM in assay [3]; 6 nM in assay [8]; 500 nM in assay [9]. For the same molecule, the dissociation constant Kd in [4] was 20 nM; in assay [5] it was 160 nM; in assay [6], 200 nM. In addition, the dissociation rate constant (koff) with laminin-511 turned out to be 0.00081 s⁻¹; in assay [8], 0.00073 s⁻¹; in [4], 0.00837 s⁻¹. The same molecule yielded a kon in [8] of 120000 M⁻¹ s⁻¹.
